Source: CN111234012A (UNIV TSINGHUA, dated 2020)

Columns and labels:
[1] = target: HBV病毒 (HepAD38细胞上清制备的HBV病毒液); assay: cell-based or functional assay
[2] = target: T1, HBs抗原 (GENBANK ACCESSION NO: P30019.1) (乙肝病毒 (hepatitis B virus), UniProt P30019 1-226); assay: ELISA, HBs antigen coated at 50 ng per well, anti-human IgG-HRP, OD450
T1 construct: Coating antigen of the ELISA (50 ng per well); also called 乙肝病毒小膜蛋白HBs; 乙肝表面抗原
T1 sequence (P30019 whole entry, one chain of several): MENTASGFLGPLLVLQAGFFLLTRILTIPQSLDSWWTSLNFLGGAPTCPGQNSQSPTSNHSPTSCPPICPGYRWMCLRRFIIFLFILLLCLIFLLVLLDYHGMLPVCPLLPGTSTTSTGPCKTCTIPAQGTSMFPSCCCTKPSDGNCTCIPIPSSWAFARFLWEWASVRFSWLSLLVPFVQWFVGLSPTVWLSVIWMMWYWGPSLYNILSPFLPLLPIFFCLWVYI

B1: 单克隆抗体B432 (antibody, V domains shown)
VH: VQLVQSGGGVVQPGGSLRLSCAASGFIFGDYAMYWVRQAPGKGLEWVSFIGADGATIYYADSVTGRFTISRDNSKNSLFLQMNSLRTEDTAFYYCAKEMGVRDRYYYYAIDVWGQGTTVTVSS
VL: EIVLTQSPGTLSLSPGERASLSCRASQSVGGYLAWYQQTPGQAPRLLIYHSSTRATGIPARFSGSGSGTDFTLTISRLEPEDFAVYYCQQRTKWPLTFGGGTKVEIKR
notes: also called B432抗体
HBV neutralisation on HepG2-NTCP cells, HBeAg in supernatant (IC50) [1]: 0.025 µg/mL
binding result [2]: binds
